These results are taken from patent publication US20200317768A1.

Test [1] addresses human FcγRIIaR extracellular domain, C-terminal His-tag (human) (UniProt P12318). Briefly: SPR 25C; FcgR bound per captured antibody, relative to parent B3.
Test [2] deals with human FcγRIIIaV extracellular domain, C-terminal His-tag (human) (UniProt P08637). The test is described as above.

human FcγRIIaR extracellular domain, C-terminal His-tag (human), sequence (P12318 34-217 H167R): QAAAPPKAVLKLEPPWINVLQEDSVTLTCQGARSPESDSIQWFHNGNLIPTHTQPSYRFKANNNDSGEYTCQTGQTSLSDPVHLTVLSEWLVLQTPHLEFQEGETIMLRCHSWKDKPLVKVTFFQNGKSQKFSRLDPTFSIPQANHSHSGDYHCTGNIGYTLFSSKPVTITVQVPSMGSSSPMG

For “GpH7-B3 variant V266F/GpL16-k0 (antibody)”, the Binding to human FcgRs (parent B3 = 100) (parent B3 = 100) came out at 8 in test [1] and 2 in test [2].
